Reference: patent publication US20210196823A1, “Methods of Treating Metabolic Disease” (Pfizer Inc., priority 2018, published 2021)

Columns and labels:
BMP2 = target: T1, BMP2 (Homo sapiens, UniProt P12643); experiment: Biacore SPR, BMP run against ERFE A4-biotin on CM4 chip; type: binding; settings: BMP 50 nM, MES-Tris buffer pH6.0, 25° C.
T1 sequence (P12643 283-396): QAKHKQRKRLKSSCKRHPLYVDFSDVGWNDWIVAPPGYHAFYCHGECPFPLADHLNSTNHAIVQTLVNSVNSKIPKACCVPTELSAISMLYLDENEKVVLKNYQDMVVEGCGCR
Text: (§1) Iron absorption is tightly regulated by erythropoietic demand via control of hepcidin expression. Erythropoietin (EPO) causes hepcidin suppression, at least in part by increasing synthesis of the hormone erythroferrone (ERFE). ERFE is produced by erythroblasts after bleeding or EPO treatment, and acts on hepatocytes to suppress hepcidin expression and increase iron availability. ERFE knock out mice fail to suppress hepcidin after phlebotomy and show delayed recovery from blood loss. Furthermore, serum ERFE concentrations are increased in humans after blood loss and EPO administration, and in β-thalassemia patients. Hepcidin expression is modulated via the BMP/SMAD signalling pathway. […] We sought to determine whether the mechanism by which ERFE suppresses hepcidin is through interaction with BMP. Binding constants were measure using Biacore SPR. BMPs 2, 4, 6 at 50 nM was run against ERFE A4-biotin amine coupled to CM4 sensor chip in MES-Tris buffer pH6.0, 25° C.

BMP4 = target: T2, BMP4 (Homo sapiens, UniProt P12644); experiment: as above; type: binding; settings: BMP 50 nM, MES-Tris buffer pH6.0, 25° C.
T2 sequence (P12644 293-408): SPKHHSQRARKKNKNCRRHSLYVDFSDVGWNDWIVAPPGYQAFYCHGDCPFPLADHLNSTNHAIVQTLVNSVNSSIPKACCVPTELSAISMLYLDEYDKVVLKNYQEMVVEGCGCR
Text: as §1

BMP6 = target: T3, BMP6 (Homo sapiens, UniProt P22004); experiment: as above; type: binding
T3 sequence (P22004 375-513): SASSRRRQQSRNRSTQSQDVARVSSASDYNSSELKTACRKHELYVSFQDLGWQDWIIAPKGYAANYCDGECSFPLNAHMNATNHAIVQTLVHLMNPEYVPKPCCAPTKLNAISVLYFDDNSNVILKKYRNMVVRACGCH
Text: as §1

Huh7 cells = experiment: HAMP and ID1 qRT-PCR in Huh7 cells treated with BMPs with or without mouse ERFE; type: cell-based; settings: a variety of different cell types
Method: (b) Gene expression microarray: Microarray analysis of Huh7 cells treated with mouse or human erythroferrone was carried out to test the activity of erythroferrone on the BMP/SMAD signalling pathway. Generally cell treatments were carried out according to the following protocol: Huh7 and HepG2 were cultured in Dulbecco's Modified Eagle's Medium—High Glucose (Sigma), supplemented with 10% Fetal Bovine Serum (Sigma), 1% Penicillin-Streptomycin (Sigma) and 1% L-Glutamine (Sigma), unless otherwise indicated. Cells were plated 24 h before treatments in 24-well (gene expression analysis) or 12-well (protein analysis) cell culture plates. At the time of treatment, cells were washed with PBS and fresh media was added.
(c) RNA isolation, cDNA synthesis and qRT-PCR: Suppression of several BMP-target genes: HAMP, ID1, ID3, SMAD6 and SMAD7 was further confirmed by qRT-PCR. Cells were lysed and RNA was isolated using the RNeasy Plus kit (Qiagen), followed by RNA quantification and quality assessment using Nanodrop (Thermo Fisher). cDNA was synthesized using the High Capacity RNA-to-cDNA kit (Applied Biosystems). Gene expression was assessed using quantitative real-time PCR with Taqman Gene Expression Master Mix and inventoried Taqman Gene expression assays (Applied Biosystems) specific for the genes of interest according to the manufacturer's instructions. […]

abdominal preadipocytes = experiment: Western blot of phospho- and total SMAD1/5/8 in preadipocytes; type: cell-based, Human; settings: abdominal cells, 30 minutes
Method: (a) Primary pre-adipocyte isolation. Human primary pre-adipocytes were prepared by isolation from white adipose tissue (WAT) biopsies taken under local anesthetic (1% lignocaine) by needle aspiration at the level of the umbilicus (ASAT) and from the upper-, outer-quadrant of the gluteal region (GSAT). Primary preadipocytes were isolated from ASAT and GSAT biopsies by mechanically mincing using scissors, washed twice with Hanks' buffered salt solution to remove contaminating blood, and then enzymatically digested in 1 mg/ml collagenase (Roche Applied Science) in Hanks' buffered salt solution in a shaking water bath (90 rpm) at 37° C. for 45 min. The digested tissue was centrifuged at 1000 rpm for 5 min at 4° C. The pellet containing stromal-vascular cells was resuspended in Dulbecco's modified Eagle's medium/F12 Ham's nutrient mixture (v/v, 1:1) containing 17.5 mM glucose and supplemented with 10% foetal calf serum, 0.25 ng/ml fibroblast growth factor, 2 mM glutamine, 100 units/ml penicillin and 100 μg/ml streptomycin. Cell stocks of APAD and GPAD cells were prepared and stored in liquid nitrogen for future studies. […]

- Kd of ERFE binding to BMP2 (BMP2): nanomolar
- Kd of ERFE binding to BMP4 (BMP4): nanomolar
- Kd of ERFE binding to BMP6 (BMP6; BMP 50 nM, MES-Tris buffer pH6.0, 25° C.): nanomolar
- tightness of ERFE binding among BMPs 2, 4 and 6 (BMP6; SPR (Biacore)): most tightly
B1: ERFE: hormone erythroferrone (FAM132b); recombinant protein, species or construct not stated at the place (SPR used ERFE A4-biotin) (protein)
chain: AAGLGSPEPGAPSRSAAAAEPPPGNELPRGPGESRAGPAARPPEPTAERAHSVDPRDAWMLFVRQSDKGVNGKKRSRGKAKKLKFGLPGPPGPPGPQGPPGPIIPPEALLKEFQLLLKGAVRQRERAEPEPCTCGPAGPVAASLAPVSATAGEDDDDVVGDVLALLAAPLAPGPRAPRVEAAFLCRLRRDALVERRALHELGVYYLPDAEGAFRRGPGLNLTSGQYRAPVAGFYALAATLHVALGEPPRRGPPRPRDHLRLLICIQSRCQRNASLEAIMGLESSSELFTISVNGVLYLQMGQWTSVFLDNASGCSLTVRSGSHFSAVLLGV
- inhibitory action on BMP2 and 4 and BMP2/6 heterodimer (Huh7 cells): Inhibitory action is also seen
- BMP2-induced SMAD1/5/8 phosphorylation on addition of ERFE (abdominal preadipocytes): diminished
